The target in experiment [1] is T1, KDR (UniProt P35968 20-764, limits assumed).
T1 construct: The receptor construct used in the RIA is not described; also called KDR receptor; VEGFR-2
Put plainly: soluble radio-immuno receptor-binding assay (RIA).

Experiment [2] deals with T1, KDR. Nature of the experiment: soluble radio-immuno receptor-binding assay (RIA); target KDR.
In the next experiment the target is T2, Flt-1 (UniProt P17948 27-758, limits assumed).
T2 construct: The receptor construct used in the RIA is not described; also called Flt-1 receptor; VEGFR-1
Nature of the experiment: soluble radio-immuno receptor-binding assay (RIA); target Flt-1.

T1 sequence (P35968 20-764 limits assumed): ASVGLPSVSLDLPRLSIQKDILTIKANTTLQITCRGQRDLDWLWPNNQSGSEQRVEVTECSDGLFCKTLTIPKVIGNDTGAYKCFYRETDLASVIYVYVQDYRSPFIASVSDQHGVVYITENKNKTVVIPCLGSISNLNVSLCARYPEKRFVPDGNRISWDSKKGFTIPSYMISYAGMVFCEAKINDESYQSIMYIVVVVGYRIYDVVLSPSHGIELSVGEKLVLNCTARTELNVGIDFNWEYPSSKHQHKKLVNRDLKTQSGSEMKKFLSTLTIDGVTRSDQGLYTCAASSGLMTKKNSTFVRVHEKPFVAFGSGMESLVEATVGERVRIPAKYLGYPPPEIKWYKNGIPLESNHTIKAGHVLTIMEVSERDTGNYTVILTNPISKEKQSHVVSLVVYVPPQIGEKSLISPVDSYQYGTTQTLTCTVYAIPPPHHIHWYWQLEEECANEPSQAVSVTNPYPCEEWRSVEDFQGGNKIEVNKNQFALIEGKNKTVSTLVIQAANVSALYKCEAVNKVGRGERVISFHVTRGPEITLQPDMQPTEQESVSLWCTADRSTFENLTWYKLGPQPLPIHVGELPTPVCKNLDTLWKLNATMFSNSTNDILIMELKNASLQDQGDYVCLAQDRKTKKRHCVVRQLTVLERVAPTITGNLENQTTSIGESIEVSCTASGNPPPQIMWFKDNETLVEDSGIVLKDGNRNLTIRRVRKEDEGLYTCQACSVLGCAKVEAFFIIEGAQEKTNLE
T2 sequence (P17948 27-758 limits assumed): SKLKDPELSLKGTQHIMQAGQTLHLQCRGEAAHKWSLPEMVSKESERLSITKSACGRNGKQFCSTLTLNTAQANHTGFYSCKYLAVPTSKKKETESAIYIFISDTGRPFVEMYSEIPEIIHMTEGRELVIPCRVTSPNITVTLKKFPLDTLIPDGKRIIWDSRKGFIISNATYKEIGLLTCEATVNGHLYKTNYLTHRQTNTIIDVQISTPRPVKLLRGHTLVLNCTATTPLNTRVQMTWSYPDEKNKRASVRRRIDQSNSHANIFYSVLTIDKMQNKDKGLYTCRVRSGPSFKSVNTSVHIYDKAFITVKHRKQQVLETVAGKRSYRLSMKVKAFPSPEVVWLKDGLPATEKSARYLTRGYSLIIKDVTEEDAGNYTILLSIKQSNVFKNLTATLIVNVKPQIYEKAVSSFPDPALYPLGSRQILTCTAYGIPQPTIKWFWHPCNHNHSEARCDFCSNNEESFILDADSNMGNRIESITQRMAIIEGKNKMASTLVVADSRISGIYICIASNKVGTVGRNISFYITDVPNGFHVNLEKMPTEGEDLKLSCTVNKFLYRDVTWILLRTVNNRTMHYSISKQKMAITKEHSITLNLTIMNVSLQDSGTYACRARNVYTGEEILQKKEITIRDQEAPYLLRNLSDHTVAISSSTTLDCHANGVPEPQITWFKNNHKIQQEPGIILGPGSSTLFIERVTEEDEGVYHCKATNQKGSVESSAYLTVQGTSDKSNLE

Take “I43A/I46A/Q79A/I83A Flt-sel variant (from UniProt P15692 27-135) (ligand)”: the fold reduction of KDR-binding affinity against native VEGF with KDR [1] is over 470 fold.

B1: native VEGF(8-109) (ligand, human, UniProt P15692 214-315, looked up)
chain: GQNHHEVVKFMDVYQRSYCHPIETLVDIFQEYPDEIEYIFKPSCVPLMRCGGCCNDEGLECVPTEESNITMQIMRIKPHQGQHIGEMSFLQHNKCECRPKKD
notes: range 8-109; Residues 8-109 are counted on the native (mature) 165-amino acid VEGF, not on the precursor with its signal peptide; the listing holds only primers; also called native protein
What is called Kd is a measure of binding affinity in units of concentration. The low end stands for a tighter complex, the high end for a looser complex. Turning to B1, the Kd worked out at 500 pM with KDR [2] and 400 pM with Flt-1.

For the origin of these results see US20080206243A1 (Genentech, published 2008).
